# B1: IL-12: cytokine (eBioscience), 10 ng/mL (protein, UniProt P43431 23-215; P43432 23-335, looked up)
# Interleukin-12 subunit alpha: RVIPVSGPARCLSQSRNLLKTTDDMVKTAREKLKHYSCTAEDIDHEDITRDQTSTLKTCLPLELHKNESCLATRETSSTTRGSCLPPQKTSLMMTLCLGSIYEDLKMYQTEFQAINAALQNHNHQQIILDKGMLVAIDELMQSLNHNGETLRQKPPVGEADPYRVKMKLCILLHAFSTRVVTINRVMGYLSSA
# Interleukin-12 subunit beta: MWELEKDVYVVEVDWTPDAPGETVNLTCDTPEEDDITWTSDQRHGVIGSGKTLTITVKEFLDAGQYTCHKGGETLSHSHLLLHKKENGIWSTEILKNFKNKTFLKCEAPNYSGRFTCSWLVQRNMDLKFNIKSSSSSPDSRAVTCGMASLSAEKVTLDQRDYEKYSVSCQEDVTCPTAEETLPIELALEARQQNKYENYSTSFFIRDIIKPDPPKNLQMKPLKNSQVEVSWEYPDSWSTPHSYFSLKFFVRIQRKKEKMKETEEGCNQKGAFLVEKTSTEVQCKGGNVCVQAQDRYYNSSCSKWACVPCRVRS
# B2: IL-23: cytokine (eBioscience), 10 ng/mL (protein, UniProt Q9EQ14 22-196; P43432 23-335, looked up)
# Interleukin-23 subunit alpha: VPRSSSPDWAQCQQLSRNLCMLAWNAHAPAGHMNLLREEEDEETKNNVPRIQCEDGCDPQGLKDNSQFCLQRIRQGLAFYKHLLDSDIFKGEPALLPDSPMEQLHTSLLGLSQLLQPEDHPRETQQMPSLSSSQQWQRPLLRSKILRSLQAFLAIAARVFAHGAATLTEPLVPTA
# Interleukin-12 subunit beta: MWELEKDVYVVEVDWTPDAPGETVNLTCDTPEEDDITWTSDQRHGVIGSGKTLTITVKEFLDAGQYTCHKGGETLSHSHLLLHKKENGIWSTEILKNFKNKTFLKCEAPNYSGRFTCSWLVQRNMDLKFNIKSSSSSPDSRAVTCGMASLSAEKVTLDQRDYEKYSVSCQEDVTCPTAEETLPIELALEARQQNKYENYSTSFFIRDIIKPDPPKNLQMKPLKNSQVEVSWEYPDSWSTPHSYFSLKFFVRIQRKKEKMKETEEGCNQKGAFLVEKTSTEVQCKGGNVCVQAQDRYYNSSCSKWACVPCRVRS
# Key:
# Assay type in all cases: cell-based, C57BL/6J mice
# Naïve CD4 T-cells [1] = assay: qPCR of lineage genes in naïve CD4 T-cells cultured with DCCM
# Source text: (§1) Naïve CD4 T cells were isolated first by sorting with MACS® CD4^+ beads (Miltenyi Biotech, Auburn, Calif.) according to manufacturer's instructions and then by fluorescence activated cell sorting (FACS) using a MoFlo™, Vantage, or Influx™ cell sorter for CD25^−CD44^lowCD62L^high cells using allophycocyanin (APC)-conjugated anti-CD25 monoclonal antibody (mAb) (clone PC61.5), FITC-conjugated CD62L mAb (clone MEL-14), and PE-Cy5-conjugated CD44 mAb (clone IM7) (all from eBioscience™, San Diego, Calif.). Cells were grown in complete IMDM (Gibco, Carlsbad, Calif.) supplemented with 10% FBS, 100 μg/mL penicillin, 100 μg/mL streptomycin, 2 mM L-glutamine, 10 mM HEPES, and 1 nM sodium pyruvate, and activated on 48-well tissue-culture plates which had been coated with 4 μg anti-CD3 (clone 2C11) for 3 h at 37° C., then washed 3 times with PBS. Cultures were supplemented with 2 μg/mL anti-CD28 (clone 37-51, a kind gift from J. Allison, Sloan-Kettering Cancer Center) and anti-IL-4 ascites (clone 11B11, a kind gift from T. Moran, Mount Sinai School of Medicine, ATCC number HB188) at 1:500. mAbs 2C11 and 37-51 were purified from hybridoma supernatants by BioXCell Company (West Lebanon, N.H.). When cultured with conditioned medium (CM) from BMDC, T cells were grown in 1:1 CM:fresh complete IMDM. […]
# T cells cultured for 48 hours under the indicated conditions were lysed and RNA isolated by TRIzol® extraction (Invitrogen) according to manufacturer's instructions. […] Quantitative real-time, reverse transcription polymerase chain reaction (qPCR) was conducted on an ABI Prism® 7900 instrument (Applied Biosystems, Foster City, Calif.) with primer pairs and probes as follows. […]
# Quantitative PCR was performed using TaqMan® quantitative PCR Master Mix at a concentration of 1× (Applied Biosystems). […] “Fold inductions” were calculated using the ΔΔCt method relative to T cells activated under neutral conditions (No cytokines or CM). […]
# Naïve CD4 T-cells [2] = assay: In vitro T-cell differentiation in DC conditioned medium, IL-17/IL-10 in supernatants by ELISA; settings: DC derived from MyD88−/−Trif−/− and Tlr4−/− mice; TGF-β concomitantly present
# Procedure: Bone marrow (BM)-derived GM-CSF DC cultures were grown in RPMI supplemented with GM-CSF and 5% foetal bovine serum (FBS), plus 100 μg/mL penicillin, 100 μg/mL streptomycin, 2 mM L-glutamine, 10 mM HEPES, 1 nM sodium pyruvate, 1×MEM nonessential amino acids, and 2.5 μM β-mercaptoethanol (all from Sigma-Aldrich, St. Louis, Mo.), as previously dcseribed^1. Semi-adherent cells were harvested on ice on day 5 and re-plated immediately in fresh GM-CSF medium at 1×10^6 cells/well in 24-well tissue culture-treated plates. Soluble or phagocytic stimuli were added right away to the plates in the same medium and the cells were centrifuged for 2 min at 2000 rpm. Supernatants (conditioned medium, CM) were collected after 18 hours. LPS (from E. coli, serotype 055:B5, L-2880) was purchased from Sigma-Aldrich. BMDC were treated with various doses of soluble LPS or 2:1 A20 LPS blasts:DC to titrate the LPS such that levels of IL-6 produced by DC in response to these stimuli was similar. Soluble LPS was used at a final concentration of 1 ng/mL. The A20 B-cell line was obtained from the ATCC (TIB-208). A20 LPS blasts were prepared by culturing A20 cells at 1×10^6 cells/mL, 3 mL/well in 6-well tissue culture plates for four days in RPMI medium supplemented with 10% FBS, with 100 μg/mL penicillin, 100 μg/mL streptomycin, 2 mM L-glutamine, 10 mM HEPES, 1 nM sodium pyruvate, plus 25 μg/mL LPS, as previously described in Blander, J. M. and Medzhitov, R. (2004) Science 304(5673):1014. […] Cells were centrifuged, counted, and apoptosis was induced by UV irradiation at 350 mJ. […]
# Naïve CD4 T cells were isolated first by sorting with MACS® CD4^+ beads (Miltenyi Biotech, Auburn, Calif.) according to manufacturer's instructions and then by fluorescence activated cell sorting (FACS) using a MoFlo™, Vantage, or Influx™ cell sorter for CD25^−CD44^lowCD62L^high cells using allophycocyanin (APC)-conjugated anti-CD25 monoclonal antibody (mAb) (clone PC61.5), FITC-conjugated CD62L mAb (clone MEL-14), and PE-Cy5-conjugated CD44 mAb (clone IM7) (all from eBioscience™, San Diego, Calif.). […]
# Naïve CD4 T-cells [3] = assay: CD4 T-cells in DCCM re-plated on anti-CD3 for 48 h with neutralizing mAbs or IL-23, cytokines by ELISA; settings: re-stimulation for 48 h in the presence of 10 ng/mL IL-23
# Source text: as §1, with “PBS.” for “PBS. Cultures were supplemented with 2 μg/mL anti-CD28 (clone 37-51, a kind gift from J. Allison, Sloan-Kettering Cancer Center) and anti-IL-4 ascites (clone 11B11, a kind gift from T. Moran, Mount Sinai School of Medicine, ATCC number HB188) at 1:500. mAbs 2C11 and 37-51 were purified from hybridoma supernatants by BioXCell Company (West Lebanon, N.H.). When cultured with conditioned medium (CM) from BMDC, T cells were grown in 1:1 CM:fresh complete IMDM.”
# Next, naïve CD4 T-cells were isolated from C57BL/6J mice and activated with 4 μg anti-CD3 and 2 μg/mL anti-CD28 plus anti-IL-4 with CM from C57BL/6J (WT) BMDC that had phagocytosed apoptotic LPS B cell-blasts. […] Cytokines were quantified in supernatants by ELISA. […]
molecule,measurement,setting,value
TGF-β,Foxp3 mRNA induction,Naïve CD4 T-cells [1]; quantitative RT-PCR,highest induction
curdlan,induction of IL-17+ CD4 T-cells,Naïve CD4 T-cells [2],able to direct induction of IL-17^+ CD4 T-cells
B1,expression of TH1 lineage-specific transcription factor T-bet,Naïve CD4 T-cells [1]; qPCR after 48 hours of culture,expressed the TH1 lineage-specific transcription factor
B2,levels of IL-17 produced,Naïve CD4 T-cells [3],only slightly increased the levels of IL-17 produced
same,total levels of IL-10 produced,Naïve CD4 T-cells [3],markedly impaired

# — patent US8628762B2, “T-helper cell type 17 lineage-specific adjuvants, compositions and methods” (Icahn School of Medicine at Mount Sinai, priority 2008, dated 2014)
